Experimental data taken from patent US20240325557A1 (INNATE PHARMA, published 2024).
Where a chain is given by its changes, count along the chain named.

T1: huNectin4-C1C2-V5 (C1C2 construct, lacking the Ig-like V domain) (human, UniProt Q96NY8 148-510)
T1 construct: Expressed on CHO cells; also called Hu-Nectin4 IgC1C2-V5; Nectin4-C1C2-V5 sorted cells
T1 sequence: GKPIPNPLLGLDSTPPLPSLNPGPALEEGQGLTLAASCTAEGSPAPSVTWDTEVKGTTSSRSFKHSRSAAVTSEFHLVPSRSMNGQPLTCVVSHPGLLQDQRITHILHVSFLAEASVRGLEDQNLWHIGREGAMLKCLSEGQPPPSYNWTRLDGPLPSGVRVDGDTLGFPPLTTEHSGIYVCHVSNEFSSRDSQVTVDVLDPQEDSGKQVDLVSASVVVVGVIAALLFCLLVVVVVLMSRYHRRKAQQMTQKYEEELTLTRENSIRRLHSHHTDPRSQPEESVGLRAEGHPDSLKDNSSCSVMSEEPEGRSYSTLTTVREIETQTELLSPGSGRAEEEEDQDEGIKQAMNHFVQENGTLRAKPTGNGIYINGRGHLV

T2: wild-type human Nectin-4 on the CHO huNectin4 Cl.3C8 cell line (human, UniProt Q96NY8 32-510)
T2 construct: also called whole Nectin-4 protein; huNectin4 CI.3C8
T2 sequence: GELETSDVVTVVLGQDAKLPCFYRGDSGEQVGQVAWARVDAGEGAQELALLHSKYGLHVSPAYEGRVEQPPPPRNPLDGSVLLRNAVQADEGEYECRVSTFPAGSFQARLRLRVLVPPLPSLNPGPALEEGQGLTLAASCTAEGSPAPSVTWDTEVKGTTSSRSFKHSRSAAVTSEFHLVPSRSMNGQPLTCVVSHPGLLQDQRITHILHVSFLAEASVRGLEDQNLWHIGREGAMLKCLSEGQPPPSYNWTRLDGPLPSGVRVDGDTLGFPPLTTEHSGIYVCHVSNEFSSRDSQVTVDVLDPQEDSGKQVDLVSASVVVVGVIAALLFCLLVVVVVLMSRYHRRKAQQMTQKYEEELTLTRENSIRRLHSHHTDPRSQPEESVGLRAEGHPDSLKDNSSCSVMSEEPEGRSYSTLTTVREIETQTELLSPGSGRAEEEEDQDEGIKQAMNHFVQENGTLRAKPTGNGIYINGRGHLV

T3: Mouse Nectin-4 on CHO cells (mouse, UniProt Q8R007 32-508)
T3 construct: also called mouse Nectin 4 protein
T3 sequence: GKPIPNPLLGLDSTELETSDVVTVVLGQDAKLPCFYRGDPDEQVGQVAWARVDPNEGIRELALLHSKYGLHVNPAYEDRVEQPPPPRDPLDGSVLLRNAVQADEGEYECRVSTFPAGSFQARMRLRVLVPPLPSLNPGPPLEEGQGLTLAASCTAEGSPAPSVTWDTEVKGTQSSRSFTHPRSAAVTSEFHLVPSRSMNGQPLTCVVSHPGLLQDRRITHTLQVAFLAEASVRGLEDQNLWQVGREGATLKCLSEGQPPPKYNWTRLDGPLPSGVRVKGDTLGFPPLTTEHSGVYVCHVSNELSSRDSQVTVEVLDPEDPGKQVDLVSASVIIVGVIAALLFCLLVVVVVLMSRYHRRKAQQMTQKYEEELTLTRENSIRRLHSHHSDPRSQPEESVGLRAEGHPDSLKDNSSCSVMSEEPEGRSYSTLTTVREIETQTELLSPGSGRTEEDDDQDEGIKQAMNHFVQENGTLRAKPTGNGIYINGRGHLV

T4: monomeric huNectin4-his-BirA protein (human, UniProt Q96NY8 32-349)
T4 construct: also called Human Nectin4-His-BirA; huNectin4-BirA
T4 sequence: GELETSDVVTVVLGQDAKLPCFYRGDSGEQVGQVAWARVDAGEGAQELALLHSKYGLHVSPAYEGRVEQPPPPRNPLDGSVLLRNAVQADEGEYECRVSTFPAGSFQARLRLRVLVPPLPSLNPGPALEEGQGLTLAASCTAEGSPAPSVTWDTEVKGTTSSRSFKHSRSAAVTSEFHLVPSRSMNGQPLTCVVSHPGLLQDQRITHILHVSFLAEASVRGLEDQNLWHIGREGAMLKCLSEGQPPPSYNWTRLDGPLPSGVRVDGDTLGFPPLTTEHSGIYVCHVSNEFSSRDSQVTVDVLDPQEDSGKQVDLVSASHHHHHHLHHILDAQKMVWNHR

T5: human Nectin-4 Mutant 7 (human, UniProt Q96NY8 32-510)
T5 construct: Expressed on transfected HEK-293T cells; also called S195A/K197T/S199A
T5 chain: T2 sequence with S164A, K166T, S168A

T6: human Nectin-4 Mutant 7bis (human, UniProt Q96NY8 32-510)
T6 construct: Expressed on transfected HEK-293T cells; also called A72P/G73N/K197T/S199A
T6 chain: T2 sequence with A41P, G42N, K166T, S168A

T7: Rat Nectin-4 on CHO cells (rat, UniProt Q8R007 31-508 (mouse entry))
T7 chain: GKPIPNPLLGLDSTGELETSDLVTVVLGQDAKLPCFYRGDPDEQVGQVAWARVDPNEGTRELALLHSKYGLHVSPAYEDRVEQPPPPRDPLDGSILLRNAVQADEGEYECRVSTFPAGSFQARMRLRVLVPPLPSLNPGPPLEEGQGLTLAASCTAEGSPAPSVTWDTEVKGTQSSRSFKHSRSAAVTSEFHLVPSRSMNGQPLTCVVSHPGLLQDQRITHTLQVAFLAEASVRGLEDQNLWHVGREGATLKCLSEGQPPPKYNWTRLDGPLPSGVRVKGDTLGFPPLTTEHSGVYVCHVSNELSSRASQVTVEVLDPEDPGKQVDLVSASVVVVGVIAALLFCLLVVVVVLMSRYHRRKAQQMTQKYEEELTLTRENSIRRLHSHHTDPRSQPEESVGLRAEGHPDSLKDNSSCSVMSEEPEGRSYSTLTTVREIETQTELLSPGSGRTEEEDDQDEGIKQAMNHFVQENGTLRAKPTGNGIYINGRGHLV

B1: antibody 5E7 (antibody, human IgG1, V domains shown)
VH: QVQLQQPGAELVKPGASVKLSCKASGYIFTSYWMHWVKQRPGQGLEWIGEIDPSDSYTNYNQKFKGKATLTLDKSSSTTYMQLSSLTSEDSAVYYCVRGYGNYGDYWGQGTTLTVSS
VL: DVVMTQAAFSNPVTLGTSASISCRSSKSLLHSNGITYLYWYLQKPGQSPQLLIYQMSNLASGVPDRFSSSGSGTDFTLRISRVEAEDVGVYYCAQNLELPWTFGGGTKLEIK
notes: Mouse variable domains; also called mAb6; Mab6
B2: antibody 10B12 (antibody, human IgG1, V domains shown)
VH: B1 VH with I28T, L72V, T79A
VL: B1 VL with V2I
notes: Mouse variable domains; also called mAb7; Mab7
B3: Enfortumab (ASG-22ME) (antibody, V domains shown)
VH: EVQLVESGGGLVQPGGSLRLSCAASGFTFSSYNMNWVRQAPGKGLEWVSYISSSSSTIYYADSVKGRFTISRDNAKNSLSLQMNSLRDEDTAVYYCARAYYYGMDVWGQGTTVTVSS
VL: DIQMTQSPSSVSASVGDRVTITCRASQGISGWLAWYQQKPGKAPKFLIYAASTLQSGVPSRFSGSGSGTDFTLTISSLQPEDFATYYCQQANSFPPTFGGGTKVEIKR
B4: mAb3 (antibody, V domains shown)
VH: B3 VH
VL: B3 VL

Assays:
[1] = molecular target: T1, huNectin4-C1C2-V5 (C1C2 construct, …); assay: flow cytometry titration on Hu-Nectin4 IgC1C2-V5 sorted cells (row label printed IC50)
[2] = molecular target: T2, wild-type human Nectin-4 on the CHO …; assay: flow cytometry titration on CHO cells expressing wild-type human Nectin-4 (huNectin4), median MFI
Description: The characterization of the binding of the antibodies on Nectin-4 domains was performed by flow cytometry using cells made to express the wild-type human Nectin-4 protein and cells made to express a modified Nectin-4 having the Ig-like C₂ type 1 and the Ig-like C₂ type 2 domains and lacking the Ig-like V domain (the C1C2 construct). The latter protein additionally bears a V5 tag for flow cytometry cell sorting, and cells were used as Nectin4-C1C2-V5 sorted cells.

[3] = molecular target: T3, Mouse Nectin-4 on CHO cells; assay: flow cytometry on CHO cells expressing mouse Nectin-4
[4] = molecular target: T4, monomeric huNectin4-his-BirA protein; assay: SPR (Biacore T200), antibody captured on Protein A, monomeric huNectin4-his-BirA injected
Description: Antibodies were tested for binding affinity to the wild-type human Nectin-4 protein by SPR (Surface Plasmon Resonance) methods. Measurements were performed on a Biacore T200 apparatus (Biacore GE Healthcare) at 25° C. Sensorgrams were analyzed with Biacore T100 Evaluation software. A CMR Sensor Chip with immobilized Protein A at about 600 RU was used. Anti-Nectin-4 antibodies were captured onto the Protein-A chip (antibodies diluted to 1 μg/ml in HBS-EP+1× buffer and injected over 120s at 40 μL/min). […] The chip was regenerated with NaOh 10 mM 2× for 30s at 40 μl/min. The sensorgram sets were fitted using the 1:1 kinetic binding model or two state reaction model, as a function of the profile of the curves.

[5] = molecular target: T5, human Nectin-4 Mutant 7; assay: binding to HEK-293T cells transfected with the Nectin-4 mutant
[6] = molecular target: T6, human Nectin-4 Mutant 7bis; assay: as above
[7] = molecular target: T7, Rat Nectin-4 on CHO cells; assay: flow cytometry titration on CHO cells expressing rat Nectin-4, median MFI (PE)

| Binder | EC50 [1] | EC50 (read off the curve) [2] | binding result [3] | Kd [4] | koff [4] | kon [4] | binding result [5] | binding result [6] | EC50 (read off the curve) [7] |
| --- | --- | --- | --- | --- | --- | --- | --- | --- | --- |
| B1 | 0.0524 µg/mL | ~0.05 µg/mL | no binding | 4.8 nM | 0.003 s⁻¹ | 620000 M⁻¹ s⁻¹ | no binding | no binding |  |
| B2 | 0.0197 µg/mL | ~0.02 µg/mL | no binding | 12 nM | 0.01 s⁻¹ | 860000 M⁻¹ s⁻¹ | no binding | no binding |  |
| B3 |  |  |  |  |  |  |  |  | ~0.2 µg/mL |
| B4 | 0.156 µg/mL | ~0.2 µg/mL |  |  |  |  |  |  |  |
